Experimental findings from PMC11728703 are described below.

Values joined by “and” are separate entries in the source; they are usually repeats but may differ in a detail not shown here. Equal values may be shown once.

This test addresses Bacteriophage P22 small terminase subunit gp3 (S-terminase), full length (bacteriophage P22). Description: native MS; co-purified S:L-terminase complex (peak 2) exchanged into 150 mM ammonium acetate pH 8.0, 2 uM, nanoflow electrospray capillary; modified QTOF-2 and Exactive Plus EMR Orbitrap.

Bacteriophage P22 small terminase subunit gp3 (S-terminase), full length (bacteriophage P22), sequence (P04893 whole entry): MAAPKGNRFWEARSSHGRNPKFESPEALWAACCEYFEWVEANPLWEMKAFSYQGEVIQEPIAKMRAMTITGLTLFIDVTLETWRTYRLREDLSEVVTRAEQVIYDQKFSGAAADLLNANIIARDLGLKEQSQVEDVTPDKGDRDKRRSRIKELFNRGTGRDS

“Bacteriophage P22 large terminase subunit gp2 (L-terminase), full length (enzyme)”: the stoichiometry N (gp2 per 1 (gp3)9) was 1 and 2; the stoichiometry N (gp2 per 2 (gp3)9) worked out at 5; the stoichiometry N (gp2 per 3 (gp3)9) was 7.
Regarding “Bacteriophage P22 small terminase subunit gp3 (S-terminase), full length (natural protein)”, the stoichiometry N came to 9.
